# Assay results reported in patent publication US20200157212A1 (Pfizer, published 2020).
# Residue numbers refer to the chain shown, from its start.
# T1: Cynomolgus monkey ROBO2 overexpressed on HEK293 cells (cynomolgus monkey, UniProt Q9HCK4 22-1378 (human entry))
# T1 chain: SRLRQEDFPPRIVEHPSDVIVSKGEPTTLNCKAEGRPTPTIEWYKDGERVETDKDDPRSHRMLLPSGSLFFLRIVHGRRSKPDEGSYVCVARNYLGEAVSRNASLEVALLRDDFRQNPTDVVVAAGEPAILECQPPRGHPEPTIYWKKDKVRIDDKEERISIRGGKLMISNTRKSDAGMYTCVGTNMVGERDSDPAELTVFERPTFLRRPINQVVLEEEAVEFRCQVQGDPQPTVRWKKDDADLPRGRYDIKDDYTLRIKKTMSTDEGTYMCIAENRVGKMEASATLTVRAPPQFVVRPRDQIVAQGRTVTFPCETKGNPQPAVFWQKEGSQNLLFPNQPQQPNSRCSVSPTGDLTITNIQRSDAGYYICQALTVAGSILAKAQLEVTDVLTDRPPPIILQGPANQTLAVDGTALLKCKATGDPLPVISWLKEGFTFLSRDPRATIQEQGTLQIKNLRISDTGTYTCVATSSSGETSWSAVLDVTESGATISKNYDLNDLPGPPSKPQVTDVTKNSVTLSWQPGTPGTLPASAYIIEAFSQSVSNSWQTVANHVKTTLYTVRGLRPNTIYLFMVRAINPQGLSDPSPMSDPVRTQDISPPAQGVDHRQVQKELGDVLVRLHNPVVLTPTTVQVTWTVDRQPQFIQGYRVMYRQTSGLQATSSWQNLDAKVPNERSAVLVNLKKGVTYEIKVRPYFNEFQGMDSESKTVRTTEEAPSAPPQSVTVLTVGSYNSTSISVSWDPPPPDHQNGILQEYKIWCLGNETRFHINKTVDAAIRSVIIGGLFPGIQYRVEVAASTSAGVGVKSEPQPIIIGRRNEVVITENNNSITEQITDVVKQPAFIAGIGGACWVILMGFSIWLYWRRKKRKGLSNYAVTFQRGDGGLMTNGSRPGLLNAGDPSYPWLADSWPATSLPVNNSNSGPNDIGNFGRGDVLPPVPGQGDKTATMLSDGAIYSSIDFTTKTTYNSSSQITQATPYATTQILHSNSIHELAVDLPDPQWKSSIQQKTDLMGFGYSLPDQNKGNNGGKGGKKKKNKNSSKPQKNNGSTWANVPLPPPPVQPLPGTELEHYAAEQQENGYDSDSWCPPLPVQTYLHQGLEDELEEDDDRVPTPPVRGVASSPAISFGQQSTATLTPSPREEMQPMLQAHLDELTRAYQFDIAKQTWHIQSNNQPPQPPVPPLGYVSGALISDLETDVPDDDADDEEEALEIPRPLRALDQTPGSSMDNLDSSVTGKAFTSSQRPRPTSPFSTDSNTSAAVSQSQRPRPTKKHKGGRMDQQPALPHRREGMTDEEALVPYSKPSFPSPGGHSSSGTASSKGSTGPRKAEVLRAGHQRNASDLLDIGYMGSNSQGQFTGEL
# B1: 93H2 (antibody, human IgG1, kappa, V domains shown)
# VH: EVQLVQSGAEVKKPGASVKVSCKASGYTFTGYYMHWVRQAPGQGLEWMGWINPNSGATNFPQKFQGRVTMTRDTSITTAYMDLSRLRSDDTAVYYCARESGDDAFDIWGQGTMVTVSS
# VL: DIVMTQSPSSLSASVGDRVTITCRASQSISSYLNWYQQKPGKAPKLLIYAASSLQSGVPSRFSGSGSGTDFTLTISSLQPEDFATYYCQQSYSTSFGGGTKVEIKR
# notes: also called parental 93H2; 93H2 mAb
# B2: Abcs25 (antibody, human IgG1, kappa, V domains shown)
# VH: B1 VH with N54K, S55D, A57D, N59E
# VL: DIVMTQSPSSLSASVGDRVTITCRASQSISSYLNWYQQKPGKAPKLLIYAASSLQSGVPSRFSGSGSGTDFTLTISSLQPEDFATYYCQQSVGLSFGGGTKVEIKR
# notes: chain-shuffled IgG
# B3: Abcs35 (antibody, human IgG1, kappa)
# heavy: EVQLVQSGAEVKKPGASVKVSCKASGYTFTGYYMHWVRQAPGQGLEWMGWINPKNGDTEFPQKFQGRVTMTRDTSITTAYMDLSRLRSDDTAVYYCARESGDDAFDIWGQGTMVTVSSASTKGPSVFPLAPSSKSTSGGTAALGCLVKDYFPEPVTVSWNSGALTSGVHTFPAVLQSSGLYSLSSVVTVPSSSLGTQTYICNVNHKPSNTKVDKKVEPKSCDKTHTCPPCPAPEAAGAPSVFLFPPKPKDTLMISRTPEVTCVVVDVSHEDPEVKFNWYVDGVEVHNAKTKPREEQYNSTYRVVSVLTVLHQDWLNGKEYKCKVSNKALPAPIEKTISKAKGQPREPQVYTLPPSREEMTKNQVSLTCLVKGFYPSDIAVEWESNGQPENNYKTTPPVLDSDGSFFLYSKLTVDKSRWQQGNVFSCSVMHEALHNHYTQKSLSLSPGK
# light: DIVMTQSPSSLSASVGDRVTITCRASQSISSYLNWYQQKPGKAPKLLIYAASSLQSGVPSRFSGSGSGTDFTLTISSLQPEDFATYYCQQSVGLFFGGGTKVEIKRTVAAPSVFIFPPSDEQLKSGTASVVCLLNNFYPREAKVQWKVDNALQSGNSQESVTEQDSKDSTYSLSSTLTLSKADYEKHKVYACEVTHQGLSSPVTKSFNRGEC
# notes: fully human IgG1; VH of Ab96 with VL of Ab123
# Target: T1, Cynomolgus monkey ROBO2 overexpressed …
# Assay: flow cytometry, HEK293 cells, average of n = 3
# Description: Binding of the antibodies was detected using a secondary fluorochrome conjugated anti-human IgG F(ab′)₂ antibody and samples were analyzed on a Fortessa cytometer (BD Biosciences). The fold ROBO2 selectivity was calculated as the geometric mean fluorescence intensity (Geo MFI) with ROBO2 cells/Geo MFI with ROBO1 cells. A fold change higher than 3 was considered to be ROBO2 specific (Table 2, Fold Selectivity). Some affinity matured clones had increased ROBO1 reactivity, for example Abcs 55, CTI-R2-10 and CTIR2-13.
# Based upon several criteria, Abcs25 and Abcs35 were selected for further characterization. Using flow cytometry, improvement in the binding EC₅₀ to human ROBO2 relative to the parental 93H2 was evaluated. Starting at 6.7 nM, 11-point, 3-fold dilution series were made for each antibody and used to stain HEK293 overexpressing human ROBO2 as described above for the ROBO2 fold selectivity (Example 2). […] In addition to measuring improved binding to human ROBO2, it was important to ensure that high affinity binding to both cynomolgus monkey ROBO2 and rat ROBO2 was maintained. Using HEK293 cells overexpressing either cynomolgus monkey ROBO2 or rat ROBO2, the relative dose-dependent binding of 93H2, Abcs25 and Abcs35 was evaluated as described above. High affinity binding to both cynomolgus monkey and rat ROBO2 was maintained in Abcs25 and Abcs35 (Table 4). […] Briefly, Abcs35 was immobilized to 300 resonance units (RU) on a CM5 chip. Association of ROBO2 Ig1-Ig2-His (ROBO2) was measured over 5 minutes and dissociation was followed for a period of 10 minutes.
row,EC50,Binder
1,0.316 nM,B1
2,0.128 nM,B2

row,Binder,EC50
1,B3,0.145 nM
